# Reference: publication PMC10611751 (2023)
# T1: p120 catenin 324-938 (mouse, UniProt P30999 324-938)
# T1 chain: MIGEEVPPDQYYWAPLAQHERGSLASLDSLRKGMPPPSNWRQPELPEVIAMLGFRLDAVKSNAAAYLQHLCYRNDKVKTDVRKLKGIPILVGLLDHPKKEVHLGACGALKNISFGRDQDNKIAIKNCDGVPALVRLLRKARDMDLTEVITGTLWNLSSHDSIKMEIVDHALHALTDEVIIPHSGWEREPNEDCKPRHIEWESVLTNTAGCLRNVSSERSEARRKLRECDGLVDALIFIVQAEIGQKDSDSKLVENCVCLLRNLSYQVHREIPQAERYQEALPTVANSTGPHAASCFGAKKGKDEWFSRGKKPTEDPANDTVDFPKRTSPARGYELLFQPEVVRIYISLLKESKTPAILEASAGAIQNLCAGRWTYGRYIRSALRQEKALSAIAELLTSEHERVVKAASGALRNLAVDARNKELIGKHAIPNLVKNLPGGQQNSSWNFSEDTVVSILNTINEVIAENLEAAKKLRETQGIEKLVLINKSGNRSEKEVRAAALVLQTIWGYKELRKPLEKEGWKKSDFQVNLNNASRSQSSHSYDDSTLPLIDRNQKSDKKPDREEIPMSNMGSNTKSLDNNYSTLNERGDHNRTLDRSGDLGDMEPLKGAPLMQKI
# T2: full-length β-catenin 1-781 (mouse, UniProt Q02248 1-781)
# T2 chain: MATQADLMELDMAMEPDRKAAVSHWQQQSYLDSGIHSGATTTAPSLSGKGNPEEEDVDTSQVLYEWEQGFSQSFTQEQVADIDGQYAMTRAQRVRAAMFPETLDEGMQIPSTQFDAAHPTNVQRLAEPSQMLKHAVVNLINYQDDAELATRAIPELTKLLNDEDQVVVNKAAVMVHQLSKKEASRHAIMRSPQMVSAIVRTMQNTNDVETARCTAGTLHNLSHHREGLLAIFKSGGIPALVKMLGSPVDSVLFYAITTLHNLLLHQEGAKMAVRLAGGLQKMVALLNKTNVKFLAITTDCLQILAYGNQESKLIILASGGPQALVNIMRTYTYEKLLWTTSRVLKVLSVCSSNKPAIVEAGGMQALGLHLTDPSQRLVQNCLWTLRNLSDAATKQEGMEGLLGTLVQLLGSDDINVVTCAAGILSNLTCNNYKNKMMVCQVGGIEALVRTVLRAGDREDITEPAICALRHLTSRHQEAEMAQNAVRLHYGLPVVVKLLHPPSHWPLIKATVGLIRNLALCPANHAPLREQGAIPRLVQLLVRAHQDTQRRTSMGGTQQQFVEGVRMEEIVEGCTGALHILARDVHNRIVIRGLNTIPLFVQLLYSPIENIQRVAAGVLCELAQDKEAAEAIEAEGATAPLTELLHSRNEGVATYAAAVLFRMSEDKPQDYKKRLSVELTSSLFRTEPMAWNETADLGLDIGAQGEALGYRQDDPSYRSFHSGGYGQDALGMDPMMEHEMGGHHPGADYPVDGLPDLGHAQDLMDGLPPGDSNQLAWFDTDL
# T3: AnkG R6-24 (Rattus norvegicus)
# T3 chain: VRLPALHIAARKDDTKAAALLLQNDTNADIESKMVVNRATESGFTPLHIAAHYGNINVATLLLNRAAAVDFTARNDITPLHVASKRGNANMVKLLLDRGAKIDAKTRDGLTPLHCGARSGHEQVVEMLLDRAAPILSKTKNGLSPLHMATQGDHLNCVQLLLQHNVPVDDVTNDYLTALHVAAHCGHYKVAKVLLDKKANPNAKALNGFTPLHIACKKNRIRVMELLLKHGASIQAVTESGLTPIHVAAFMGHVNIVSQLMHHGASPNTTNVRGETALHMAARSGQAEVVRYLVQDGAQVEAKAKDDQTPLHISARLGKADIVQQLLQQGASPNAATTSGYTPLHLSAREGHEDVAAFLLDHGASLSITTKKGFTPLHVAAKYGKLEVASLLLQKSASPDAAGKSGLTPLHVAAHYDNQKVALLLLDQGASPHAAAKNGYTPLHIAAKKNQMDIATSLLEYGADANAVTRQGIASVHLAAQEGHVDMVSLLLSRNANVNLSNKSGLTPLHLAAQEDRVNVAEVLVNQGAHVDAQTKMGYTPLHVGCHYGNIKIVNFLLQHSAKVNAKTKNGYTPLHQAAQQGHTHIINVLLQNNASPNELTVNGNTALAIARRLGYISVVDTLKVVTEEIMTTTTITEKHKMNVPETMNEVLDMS
# T4: Ankyrin-G ANK repeats 8-14 (UniProt O70511 275-500)
# T4 chain: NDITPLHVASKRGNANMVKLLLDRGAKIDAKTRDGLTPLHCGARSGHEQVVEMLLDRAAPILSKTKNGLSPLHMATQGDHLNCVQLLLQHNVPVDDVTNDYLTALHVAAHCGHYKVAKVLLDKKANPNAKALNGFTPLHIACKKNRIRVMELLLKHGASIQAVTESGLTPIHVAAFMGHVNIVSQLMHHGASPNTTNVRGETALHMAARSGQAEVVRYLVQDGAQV
# B1: Ankyrin-G 24 ANK repeats (residues 38-855) (domain or fragment)
# chain: KSDANASYLRAARAGHLEKALDYIKNGVDVNICNQNGLNALHLASKEGHVEVVSELLQREANVDAATKKGNTALHIASLAGQAEVVKVLVTNGANVNAQSQNGFTPLYMAAQENHLEVVRFLLDNGASQSLATEDGFTPLAVALQQGHDQVVSLLLENDTKGKVRLPALHIAARKDDTKAAALLLQNDTNADIESKMVVNRATESGFTPLHIAAHYGNINVATLLLNRAAAVDFTARNDITPLHVASKRGNANMVKLLLDRGAKIDAKTRDGLTPLHCGARSGHEQVVEMLLDRAAPILSKTKNGLSPLHMATQGDHLNCVQLLLQHNVPVDDVTNDYLTALHVAAHCGHYKVAKVLLDKKANPNAKALNGFTPLHIACKKNRIRVMELLLKHGASIQAVTESGLTPIHVAAFMGHVNIVSQLMHHGASPNTTNVRGETALHMAARSGQAEVVRYLVQDGAQVEAKAKDDQTPLHISARLGKADIVQQLLQQGASPNAATTSGYTPLHLSAREGHEDVAAFLLDHGASLSITTKKGFTPLHVAAKYGKLEVASLLLQKSASPDAAGKSGLTPLHVAAHYDNQKVALLLLDQGASPHAAAKNGYTPLHIAAKKNQMDIATSLLEYGADANAVTRQGIASVHLAAQEGHVDMVSLLLSRNANVNLSNKSGLTPLHLAAQEDRVNVAEVLVNQGAHVDAQTKMGYTPLHVGCHYGNIKIVNFLLQHSAKVNAKTKNGYTPLHQAAQQGHTHIINVLLQNNASPNELTVNGNTALAIARRLGYISVVDTLKVVTEEIMTTTTITEKHKMNVPETMNEVLDMS
# Tests used:
# Test in all cases: ITC
# p120 catenin 324-938 = biological target: T1, p120 catenin 324-938
# [1] = biological target: T2, full-length β-catenin 1-781
# AnkG R6-24 = biological target: T3, AnkG R6-24
# [2] = biological target: T4, Ankyrin-G ANK repeats 8-14
# [3] = biological target: B1
# [4] = biological target: E-cadherin CTD site-2, 3 to A (mouse, UniProt P09803 734-884, Y829A | Y837A | Y861A | Y863A | W867A)
# [5] = biological target: E-cadherin CTD site-1, 3 to A (mouse, UniProt P09803 734-884, Y755A | Y756A | Y757A | Y861A | Y863A | W867A)
# [6] = biological target: E-cadherin CTD site-1, 2 to A (mouse, UniProt P09803 734-884, Y755A | Y756A | Y757A | Y829A | Y837A)
# [7] = biological target: E-cadherin CTD site-1 to A (mouse, UniProt P09803 734-884, Y755A | Y756A | Y757A)
# [8] = biological target: E-cadherin CTD site-3 to A (mouse, UniProt P09803 734-884, Y861A | Y863A | W867A)
# [9] = biological target: E-cadherin CTD site-2 to A (mouse, UniProt P09803 734-884, Y829A | Y837A)
Kd (p120 catenin 324-938) [nM],Kd [1] [nM],Kd (AnkG R6-24) [nM],Kd [2] [nM],Kd [3] [nM],Kd [4] [nM],Kd [5] [nM],Kd [6] [nM],Kd [7] [nM],Kd [8] [nM],Kd [9] [nM],Binder
1700,36,2900,5000,2800,–,–,–,–,–,–,E-cadherin C-terminal domain (residues 734-884) (domain or fragment) not shown
–,–,–,–,–,3300,4900,6300,2000,4200,2900,B1
